First the molecules themselves.
B1: KLHDC10 (parent)
chain: CPIIRIPNRFLRGHRPPPARSGHR
B2: ESRRA (parent)
chain: SLPLQDELAFAEDLVLDEEGARAA
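Also: lentivirally expressed fusions sorted by FACS into six bins by GFP to DsRed ratio, PSI derived from sequencing read proportions per bin multiplied by bin number.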

The variants in the first data set derive from B1. Briefly: protein stability index of a GFP-peptide fusion (GPS, HEK-293T) (PSI 1-6); higher = more stable. Conditions: c terminus: a fixed tail appended.
With CDIIRIPNRFLRGHRPPPARSGHR, the protein stability index was determined as 2.32.
In the case of CAIIRIPNRFLRGHRPPPARSGHR, the protein stability index is 3.75.
The same measure, in the same setting: as for CSIIRIPNRFLRGHRPPPARSGHR, the figure is 1.31; as for CIIIRIPNRFLRGHRPPPARSGHR, 2.6; as for CGIIRIPNRFLRGHRPPPARSGHR, 2.41.
Same read-out and setting: next, FPIIRIPNRFLRGHRPPPARSGHR: 2.15.
On to KPIIRIPNRFLRGHRPPPARSGHR, for which the protein stability index turned out to be 3.56.
As for QPIIRIPNRFLRGHRPPPARSGHR, the protein stability index turned out to be 4.42.
Regarding RPIIRIPNRFLRGHRPPPARSGHR, the protein stability index was 3.57.
Take LPIIRIPNRFLRGHRPPPARSGHR: the protein stability index is 2.68.
For the variant IPIIRIPNRFLRGHRPPPARSGHR, the protein stability index is 3.59.
Same read-out and setting: as for PPIIRIPNRFLRGHRPPPARSGHR, the figure is 3.87; as for EPIIRIPNRFLRGHRPPPARSGHR, 3.76.
Take WPIIRIPNRFLRGHRPPPARSGHR: the protein stability index was 1.59.
Same read-out and setting: as for YPIIRIPNRFLRGHRPPPARSGHR, the figure is 1.97.
Turning to HPIIRIPNRFLRGHRPPPARSGHR, the protein stability index is 2.91.
On the same count and under the same terms, as for MPIIRIPNRFLRGHRPPPARSGHR, the figure is 3.21; as for SPIIRIPNRFLRGHRPPPARSGHR, 3.41.
Still for that read-out and setting: next, APIIRIPNRFLRGHRPPPARSGHR: 4.28; NPIIRIPNRFLRGHRPPPARSGHR: 3.73.
On the same count and under the same terms, next, TPIIRIPNRFLRGHRPPPARSGHR: 3.29; DPIIRIPNRFLRGHRPPPARSGHR: 2.89; CPIPRIPNRFLRGHRPPPARSGHR: 4.21.
CPICRIPNRFLRGHRPPPARSGHR: the protein stability index turned out to be 2.31.
Consider CPIGRIPNRFLRGHRPPPARSGHR, for which the protein stability index was 3.77.
CPIRRIPNRFLRGHRPPPARSGHR: the protein stability index is 4.37.
With CPIDRIPNRFLRGHRPPPARSGHR, the protein stability index was 4.49.
The same measure, in the same setting: as for CPIMRIPNRFLRGHRPPPARSGHR, the figure is 1.86; as for CPINRIPNRFLRGHRPPPARSGHR, 4.38.
On the same count and under the same terms, as for CPIARIPNRFLRGHRPPPARSGHR, the figure is 2.7; as for CPIKRIPNRFLRGHRPPPARSGHR, 3.06.
Same read-out and setting: next, CPILRIPNRFLRGHRPPPARSGHR: 2.4; CPIQRIPNRFLRGHRPPPARSGHR: 3.94.
Take CPISRIPNRFLRGHRPPPARSGHR: the protein stability index came to 3.22.
Same read-out and setting: as for CPIERIPNRFLRGHRPPPARSGHR, the figure is 4.56.
On the same count and under the same terms, as for CPIFRIPNRFLRGHRPPPARSGHR, the figure is 2.46; as for CPDIRIPNRFLRGHRPPPARSGHR, 2.16.
On the same count and under the same terms, as for CPNIRIPNRFLRGHRPPPARSGHR, the figure is 3.74.
On to CPYIRIPNRFLRGHRPPPARSGHR, for which the protein stability index amounted to 1.6.
On the same count and under the same terms, next, CPHIRIPNRFLRGHRPPPARSGHR: 2.16; CPSIRIPNRFLRGHRPPPARSGHR: 2.56; CPKIRIPNRFLRGHRPPPARSGHR: 2.81.
Regarding CPFIRIPNRFLRGHRPPPARSGHR, the protein stability index was determined as 1.47.
As to CPVIRIPNRFLRGHRPPPARSGHR, the protein stability index was 1.71.
Still for that read-out and setting: next, CPLIRIPNRFLRGHRPPPARSGHR: 2.15; CPEIRIPNRFLRGHRPPPARSGHR: 3.25.
With CPRIRIPNRFLRGHRPPPARSGHR, the protein stability index is 2.62.
CPPIRIPNRFLRGHRPPPARSGHR: the protein stability index is 4.2.
Same read-out and setting: next, CPTIRIPNRFLRGHRPPPARSGHR: 2.36; CPAIRIPNRFLRGHRPPPARSGHR: 1.56.
On to CPMIRIPNRFLRGHRPPPARSGHR, for which the protein stability index stood at 2.09.
On the same count and under the same terms, as for CPCIRIPNRFLRGHRPPPARSGHR, the figure is 1.78.

In a further data set the parent is B2. Described as above. To be noted: c terminus: a fixed tail appended.
On to SLPLQDELAFAEDLVLDEEGACAA, for which the protein stability index amounted to 3.2.
Regarding SLPLQDELAFAEDLVLDEEGAWAA, the protein stability index amounted to 2.53.
Take SLPLQDELAFAEDLVLDEEGAGAA: the protein stability index was determined as 3.13.
Same read-out and setting: as for SLPLQDELAFAEDLVLDEEGAMAA, the figure is 3.42; as for SLPLQDELAFAEDLVLDEEGAVAA, 3.69.
On the same count and under the same terms, as for SLPLQDELAFAEDLVLDEEGAHAA, the figure is 3.65; as for SLPLQDELAFAEDLVLDEEGASAA, 3.62.
As to SLPLQDELAFAEDLVLDEEGANAA, the protein stability index came out at 3.36.
Still for that read-out and setting: next, SLPLQDELAFAEDLVLDEEGAAAA: 3.35.
The same measure, in the same setting: as for SLPLQDELAFAEDLVLDEEGAIAA, the figure is 2.94; as for SLPLQDELAFAEDLVLDEEGAYAA, 3.01; as for SLPLQDELAFAEDLVLDEEGAKAA, 3.12.
Same read-out and setting: next, SLPLQDELAFAEDLVLDEEGALAA: 3.73.
In the case of SLPLQDELAFAEDLVLDEEGAFAA, the protein stability index stood at 3.24.
Same read-out and setting: as for SLPLQDELAFAEDLVLDEEGAQAA, the figure is 3.45; as for SLPLQDELAFAEDLVLDEEGATAA, 4.45; as for SLPLQDELAFAEDLVLDEEGAEAA, 4.36.
Still for that read-out and setting: next, SLPLQDELAFAEDLVLDEEGAPAA: 3.01.
On to SLPLQDELAFAEDLVLDEEGADAA, for which the protein stability index stood at 4.19.
The same measure, in the same setting: as for SLPLQDELAFAEDLVLDEEGARAC, the figure is 2.94; as for SLPLQDELAFAEDLVLDEEGARAT, 3.94; as for SLPLQDELAFAEDLVLDEEGARAH, 3.66.
Turning to SLPLQDELAFAEDLVLDEEGARAG, the protein stability index amounted to 3.22.
Regarding SLPLQDELAFAEDLVLDEEGARAS, the protein stability index amounted to 2.82.
With SLPLQDELAFAEDLVLDEEGARAW, the protein stability index came out at 2.74.
In the case of SLPLQDELAFAEDLVLDEEGARAK, the protein stability index was determined as 2.96.
For SLPLQDELAFAEDLVLDEEGARAQ, the protein stability index was 3.05.
SLPLQDELAFAEDLVLDEEGARAV: the protein stability index came out at 3.06.
As for SLPLQDELAFAEDLVLDEEGARAD, the protein stability index amounted to 3.71.
Regarding SLPLQDELAFAEDLVLDEEGARAY, the protein stability index was determined as 3.
Still for that read-out and setting: next, SLPLQDELAFAEDLVLDEEGARAF: 2.14; SLPLQDELAFAEDLVLDEEGARAM: 2.97.
On the same count and under the same terms, as for SLPLQDELAFAEDLVLDEEGARAL, the figure is 2.75; as for SLPLQDELAFAEDLVLDEEGARAR, 2.8.
Regarding SLPLQDELAFAEDLVLDEEGARAE, the protein stability index worked out at 3.5.
On to SLPLQDELAFAEDLVLDEEGARAP, for which the protein stability index is 3.21.
As to SLPLQDELAFAEDLVLDEEGARAI, the protein stability index stood at 2.92.
The same measure, in the same setting: as for SLPLQDELAFAEDLVLDEEGARAN, the figure is 2.28; as for SLPLQDELAFAEDLVLWEEGARAA, 2.62; as for SLPLQDELAFAEDLVLVEEGARAA, 3.19.
Same read-out and setting: next, SLPLQDELAFAEDLVLYEEGARAA: 2.5; SLPLQDELAFAEDLVLDEEGFRAA: 3.5.

The values are drawn from the supplement of paper PMC10567573.
